Reference: publication PMC7692894

How the values were obtained:
[1] = SEC; milk peptide fraction <3 kDa (MP) run beside pepsin autoproteolysis peptides (PP); physiologically relevant conditions; area under the curve at 215 nm; details in Supplementary Information
[2] = target: milk-derived short digestion-resistant peptides with the mass <3 kDa; assay: as above

- stoichiometry N [2]: > 4
Substance: milk-derived short digestion-resistant peptides with the mass <3 kDa
- percent of the peptides aggregated [1]: 43.5% of the peptides aggregated into larger complexes
